Assay results from article PMC7618180.

Key:
human UBR4 (human) = human UBR4 (human) (UniProt Q5T4S7); test: mass photometry; isolated human UBR4/KCMF1/CALM1 complex, co-expressed in insect cells and purified via a tag on UBR4
[1] = target: C. elegans UBR4 (C. elegans); test: not stated; molecular weight of the purified C. elegans UBR4 complex (Fig. S13A)

Sequence of human UBR4, Q5T4S7 1-5183 (enzyme) (Q5T4S7 whole entry): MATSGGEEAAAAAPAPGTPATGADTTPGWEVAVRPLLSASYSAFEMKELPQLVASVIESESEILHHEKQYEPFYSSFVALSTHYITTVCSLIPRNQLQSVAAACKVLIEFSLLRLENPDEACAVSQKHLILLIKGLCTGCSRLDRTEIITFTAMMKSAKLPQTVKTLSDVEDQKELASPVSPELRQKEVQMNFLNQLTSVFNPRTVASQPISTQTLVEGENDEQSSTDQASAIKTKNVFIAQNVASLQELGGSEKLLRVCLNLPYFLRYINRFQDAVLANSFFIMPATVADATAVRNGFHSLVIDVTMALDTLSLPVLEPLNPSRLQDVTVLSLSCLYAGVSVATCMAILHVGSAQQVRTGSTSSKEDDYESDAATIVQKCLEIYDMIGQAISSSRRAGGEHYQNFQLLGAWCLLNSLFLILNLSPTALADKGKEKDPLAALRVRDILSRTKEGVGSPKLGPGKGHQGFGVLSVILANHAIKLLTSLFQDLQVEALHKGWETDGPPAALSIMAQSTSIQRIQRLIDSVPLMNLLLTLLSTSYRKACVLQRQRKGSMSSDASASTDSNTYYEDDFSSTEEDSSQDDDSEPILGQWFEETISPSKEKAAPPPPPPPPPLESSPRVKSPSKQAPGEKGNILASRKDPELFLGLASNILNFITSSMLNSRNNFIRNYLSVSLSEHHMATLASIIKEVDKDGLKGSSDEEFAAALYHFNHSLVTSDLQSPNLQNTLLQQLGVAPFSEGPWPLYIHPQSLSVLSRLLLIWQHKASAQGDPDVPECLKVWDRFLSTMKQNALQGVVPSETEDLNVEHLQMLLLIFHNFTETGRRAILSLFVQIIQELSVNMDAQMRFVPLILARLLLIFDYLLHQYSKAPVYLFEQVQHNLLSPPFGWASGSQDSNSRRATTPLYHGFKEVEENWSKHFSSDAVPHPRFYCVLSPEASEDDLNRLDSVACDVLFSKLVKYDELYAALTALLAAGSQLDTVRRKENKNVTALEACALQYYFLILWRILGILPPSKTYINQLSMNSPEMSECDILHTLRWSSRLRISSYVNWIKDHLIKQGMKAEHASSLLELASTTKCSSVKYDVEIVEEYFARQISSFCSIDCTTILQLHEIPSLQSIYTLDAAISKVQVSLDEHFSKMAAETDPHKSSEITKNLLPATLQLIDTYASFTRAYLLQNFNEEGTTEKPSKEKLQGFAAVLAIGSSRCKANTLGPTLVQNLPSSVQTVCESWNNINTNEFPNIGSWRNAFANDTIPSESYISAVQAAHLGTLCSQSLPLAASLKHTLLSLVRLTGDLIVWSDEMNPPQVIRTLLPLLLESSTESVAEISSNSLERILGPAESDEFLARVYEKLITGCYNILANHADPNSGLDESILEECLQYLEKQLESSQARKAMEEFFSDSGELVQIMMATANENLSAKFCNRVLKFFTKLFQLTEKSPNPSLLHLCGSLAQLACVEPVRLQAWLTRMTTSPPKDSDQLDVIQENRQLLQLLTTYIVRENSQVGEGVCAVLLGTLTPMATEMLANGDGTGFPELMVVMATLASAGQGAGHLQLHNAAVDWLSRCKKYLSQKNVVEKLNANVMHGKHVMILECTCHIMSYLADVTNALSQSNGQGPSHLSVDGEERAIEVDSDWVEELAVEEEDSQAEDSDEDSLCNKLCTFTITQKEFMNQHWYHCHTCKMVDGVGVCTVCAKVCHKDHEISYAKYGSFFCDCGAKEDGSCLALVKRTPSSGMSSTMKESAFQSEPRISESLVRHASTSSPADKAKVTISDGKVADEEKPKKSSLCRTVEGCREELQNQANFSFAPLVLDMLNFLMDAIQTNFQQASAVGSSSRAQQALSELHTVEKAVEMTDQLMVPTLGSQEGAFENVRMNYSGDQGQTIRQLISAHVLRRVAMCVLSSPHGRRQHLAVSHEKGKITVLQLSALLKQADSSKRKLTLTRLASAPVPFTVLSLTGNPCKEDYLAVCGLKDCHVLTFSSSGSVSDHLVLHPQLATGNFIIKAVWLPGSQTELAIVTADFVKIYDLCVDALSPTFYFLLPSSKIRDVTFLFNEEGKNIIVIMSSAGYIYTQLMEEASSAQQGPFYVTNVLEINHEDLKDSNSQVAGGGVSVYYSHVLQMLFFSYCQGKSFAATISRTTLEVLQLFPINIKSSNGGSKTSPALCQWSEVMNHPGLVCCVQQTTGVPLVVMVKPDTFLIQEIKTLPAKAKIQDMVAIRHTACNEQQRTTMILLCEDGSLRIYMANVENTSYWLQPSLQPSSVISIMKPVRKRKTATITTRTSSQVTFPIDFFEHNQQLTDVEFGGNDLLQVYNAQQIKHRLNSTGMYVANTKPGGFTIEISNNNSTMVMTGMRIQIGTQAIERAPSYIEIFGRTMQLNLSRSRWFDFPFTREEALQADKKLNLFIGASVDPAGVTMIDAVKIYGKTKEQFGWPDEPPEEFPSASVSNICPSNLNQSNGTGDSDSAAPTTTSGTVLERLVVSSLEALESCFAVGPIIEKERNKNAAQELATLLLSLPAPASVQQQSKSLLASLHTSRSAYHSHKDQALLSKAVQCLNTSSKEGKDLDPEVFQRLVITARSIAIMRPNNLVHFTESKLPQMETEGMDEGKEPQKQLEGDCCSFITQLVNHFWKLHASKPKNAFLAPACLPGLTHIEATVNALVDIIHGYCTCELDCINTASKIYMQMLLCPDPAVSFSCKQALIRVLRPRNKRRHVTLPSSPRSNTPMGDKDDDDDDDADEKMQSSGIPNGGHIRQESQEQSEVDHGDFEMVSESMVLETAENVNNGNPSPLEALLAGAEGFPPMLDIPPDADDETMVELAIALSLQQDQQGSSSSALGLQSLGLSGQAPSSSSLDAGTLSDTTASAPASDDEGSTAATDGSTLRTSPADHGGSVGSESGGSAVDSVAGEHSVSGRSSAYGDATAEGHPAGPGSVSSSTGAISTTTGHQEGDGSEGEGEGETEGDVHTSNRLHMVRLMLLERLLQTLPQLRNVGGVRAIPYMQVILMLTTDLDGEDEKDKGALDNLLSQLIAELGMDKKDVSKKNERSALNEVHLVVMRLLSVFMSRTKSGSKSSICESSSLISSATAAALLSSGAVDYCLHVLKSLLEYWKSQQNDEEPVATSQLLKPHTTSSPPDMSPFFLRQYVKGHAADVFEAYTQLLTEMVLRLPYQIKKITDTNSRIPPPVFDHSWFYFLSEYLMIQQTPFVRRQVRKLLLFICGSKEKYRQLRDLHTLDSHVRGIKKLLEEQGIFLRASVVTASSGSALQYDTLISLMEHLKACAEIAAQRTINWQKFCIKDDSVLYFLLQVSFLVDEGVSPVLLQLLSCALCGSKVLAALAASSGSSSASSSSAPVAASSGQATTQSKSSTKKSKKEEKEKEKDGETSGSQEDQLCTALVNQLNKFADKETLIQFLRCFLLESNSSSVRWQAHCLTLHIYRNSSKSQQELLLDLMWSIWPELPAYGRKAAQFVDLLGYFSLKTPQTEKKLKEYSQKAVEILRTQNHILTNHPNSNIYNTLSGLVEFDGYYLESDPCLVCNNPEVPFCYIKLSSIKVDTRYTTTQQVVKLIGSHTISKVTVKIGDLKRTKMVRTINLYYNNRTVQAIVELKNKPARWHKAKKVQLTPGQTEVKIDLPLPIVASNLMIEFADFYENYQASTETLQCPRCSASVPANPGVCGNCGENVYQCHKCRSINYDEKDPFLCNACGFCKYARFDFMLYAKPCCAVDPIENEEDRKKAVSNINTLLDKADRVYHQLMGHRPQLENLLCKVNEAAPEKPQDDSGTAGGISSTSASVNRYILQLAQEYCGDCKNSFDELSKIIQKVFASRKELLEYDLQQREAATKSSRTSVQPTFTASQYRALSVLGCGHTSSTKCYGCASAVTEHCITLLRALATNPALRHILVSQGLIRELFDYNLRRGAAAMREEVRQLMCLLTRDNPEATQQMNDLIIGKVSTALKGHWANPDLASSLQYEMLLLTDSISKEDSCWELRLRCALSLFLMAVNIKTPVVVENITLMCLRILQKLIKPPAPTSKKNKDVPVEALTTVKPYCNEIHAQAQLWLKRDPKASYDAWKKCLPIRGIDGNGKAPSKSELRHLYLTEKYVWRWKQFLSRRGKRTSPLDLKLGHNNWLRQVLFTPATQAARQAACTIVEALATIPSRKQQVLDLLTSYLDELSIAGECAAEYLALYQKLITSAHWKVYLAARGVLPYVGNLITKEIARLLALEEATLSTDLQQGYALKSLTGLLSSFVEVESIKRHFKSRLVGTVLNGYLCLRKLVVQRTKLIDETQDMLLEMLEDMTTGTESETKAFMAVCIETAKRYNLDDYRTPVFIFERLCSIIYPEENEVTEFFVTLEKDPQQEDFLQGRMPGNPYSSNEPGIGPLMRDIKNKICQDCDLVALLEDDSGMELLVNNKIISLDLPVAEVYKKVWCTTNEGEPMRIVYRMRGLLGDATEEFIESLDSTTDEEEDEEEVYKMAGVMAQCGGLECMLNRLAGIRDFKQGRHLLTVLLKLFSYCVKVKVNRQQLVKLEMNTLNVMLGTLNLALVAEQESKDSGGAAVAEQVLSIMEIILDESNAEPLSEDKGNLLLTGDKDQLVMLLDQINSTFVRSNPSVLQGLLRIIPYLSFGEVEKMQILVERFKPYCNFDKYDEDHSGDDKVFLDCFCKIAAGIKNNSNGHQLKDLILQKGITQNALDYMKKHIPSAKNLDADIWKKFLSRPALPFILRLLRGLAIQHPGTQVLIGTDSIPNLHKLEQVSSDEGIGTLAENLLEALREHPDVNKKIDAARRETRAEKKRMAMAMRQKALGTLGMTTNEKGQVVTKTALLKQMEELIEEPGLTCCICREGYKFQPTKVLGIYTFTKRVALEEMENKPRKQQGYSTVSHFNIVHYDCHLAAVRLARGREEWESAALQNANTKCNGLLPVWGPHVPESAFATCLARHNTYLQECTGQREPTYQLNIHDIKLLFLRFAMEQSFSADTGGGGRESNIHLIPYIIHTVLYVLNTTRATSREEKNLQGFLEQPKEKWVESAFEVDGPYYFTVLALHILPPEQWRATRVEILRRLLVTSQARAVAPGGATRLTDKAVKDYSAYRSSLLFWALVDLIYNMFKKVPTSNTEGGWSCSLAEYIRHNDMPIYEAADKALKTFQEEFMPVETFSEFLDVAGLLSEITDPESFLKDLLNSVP

| Substance | stoichiometry N (human UBR4 (human)) | stoichiometry N [1] |
| --- | --- | --- |
| human UBR4, Q5T4S7 1-5183 (enzyme) | 2 | – |
| C. elegans UBR4, A0A0S4XR36 1-4218 | – | 2 |
